Results published in the DeepSol protein solubility set.

Test: soluble on expression in E. coli; label from the status in PepcDB or PDB records

| Sequence | soluble on expression in E. coli |
| --- | --- |
| MSLNVDPNITKYMIKAKIVTDGVVEKPDVVGAIFGQTEGLLGDELDLRDLQKSGKIGRIEVEIDTKKGRTEGYVLIPSGLDQVESSILAAALETIDRIGPCKAKVEIESIEDVRINKRDRVIKRAEELYRKMGENGKSLSESIVQTVREEVEKKEIISYGEEHLPAGPAIADSDSIIVVEGRNDVLNLLRYGIKNTIAVQGTSVPKTVKELSKSRTVTLFVDGDHGGDLIIKEMLQVADVDFIARAPPGTEVEELTYKQIIKALKYKTPVEQYLETHGMIEELKEWSSRNTKELEERQGNELKNERPEKINENEESEKNVELKEGSVQKLETVPEFDPSSPESIKFKLKQLYESRELELFDGQSSVGKFPVSDAIEKIESMHGDLLITGGIISQRLLDIAYNIGVKAIYGFKIGNITKKPDDIKVVAWDHIEGHHHHHH | soluble |
| MGSDKIHHHHHHMCRWLAYTGNPIPLETVLFRAKHSLIDQSLHSRMGATTTNGDGFGIGWYGQPDEVPFIYRCVSPAWNDRNLREAARAIRSPLFVAHVRSATDTPVQETNCHPFRRGRWLFAHNGLIRRYHTLRRDLMMRIDPGLFASIEGSTDSEVMFHLALTFGLEHDPLAALERMAGAIEDAGAHHRVDAPLNMTVCATDGEQVVAVRYSSEHDSRSLFHSTSFRHLHELYPHDPRIRAIGDDAFLVLSEPLVDLHDAWEKIPESTAIIARRGDIRQVPFQPRRST | not soluble |
| MNIHKALCLSAGVSVALISLAAQAAETVTIATVNNGDMIRMQRLSKIFEQQHPDIKLNWVVLEENVLRQRLTTDIATQGGQFDVLTIGTYETPLWGAKQWLEPITDLAPEYDLEDIFPSVRQGLSVKNTLYALPFYGESTITYYRTDLFKQAGLSMPERPTWTQLGEFAAKLHQPDKGVYGMCLRGKAGWGENIALLSTMANAFGARWFDEHWKPELNSPEWANAANFYVNTLKNYGPPGVSSNGFNETLALFNSGKCALWVDASVAGSFTTDKEQSKVVDSVGFAPAPVEVTDKGSSWLYAWSLAIPATSRHKDAAKAFITWATSKAYIQLVAEKDGITNVPPGTRTSTYSEAYLKAAPFAKVTLQMMQHADPAQPSAKPVPYVGIQYVTIPEFQAIGTSVGKLFSAAVTGQTTTEQALTAAQAVTEREMKRAGYPK | not soluble |
| VFPSSVYVPDEWEVSREKITLLRELGQGSFGMVYEGNARDIIKGEAETRVAVKTVNESASLRERIEFLNEASVMKGFTCHHVVRLLGVVSKGQPTLVVMELMAHGDLKSYLRSLRPEAENNPGRPPPTLQEMIQMAAEIADGMAYLNAKKFVHRDLAARNCMVAHDFTVKIGDFGMTRDIYETDYYRKGGKGLLPVRWMAPESLKDGVFTTSSDMWSFGVVLWEITSLAEQPYQGLSNEQVLKFVMDGGYLDQPDNCPERVTDLMRMCWQFNPNMRPTFLEIVNLLKDDLHPSFPEVSFFHSEENK | soluble |
| IAAVGDGVCMLDRGFRIVYQNRAHERLLGEHGGERCSDAYGEDPDACRDCPMARAMDTGEVCTGSRRFISKGETRLLEITSSPVRNAAGEIVAGVEVVRDVT | not soluble |
| MRKYSQRHIPVMVREVIEFLKPEDEKIILDCTVGEGGHSRAILEHCPGCRIIGIDVDSEVLRIAEEKLKEFSDRVSLFKVSYREADFLLKTLGIEKVDGILMDLGVSTYQLKGENRGFTFEREEPLDMRMDLESEVTAQKVLNELPEEELARIIFEYGEEKRFARRIARKIVENRPLNTTLDLVKAVREALPSYEIRRRKRHFATKTFQAIRIYVNRELENLKEFLKKAEDLLNPGGRIVVISFHSLEDRIVKETFRNSKKLRILTEKPVRPSEEEIRENPRARSGRLRAAERIEEGGD | soluble |
| MVREAKNLRARTKKISLHICRKHAPQSEDFRCVFLRQQVIDRDIEAMAKPYDFYIVWKLSYNHVFTIHPRHTILELPPVYPDTALVPFFIMRFSFFDHMISCEYIFHRKLFVCLHRKNKQKQKSNM | not soluble |
| MKKEIKFSLMYRDMWQSSGKYQPRKDQLERIAPVIVEMGCFARVETNGGAFEQVNLLYGENPNKAVRAFTKPLNEAGIQTHMLDRGLNGLRMFPVPADVRRLMYKVKKAQGVDITRIFDGLNDARNIIPSIKYALEAGMIPQATLCITFSPVHTVEYYSNLADELIAAGAPEICLKDMAGIGRPHFLGQLVKSIKTKHPDVIIEYHGHSGPGFSVASMLEVCENGADIIDVAMEPISWGKVHPDVITIQQMLKDAGFKVPEINMDAYMKARSLTQEFIDDFLGYFMDPSNKETSSLLVGCGLPGGMMGSMMADLKGVHAGINMFLKGKGEPEMTIDQLLVRLFQEVEYVWPRLGYPPLVTPFSQYVKNVALMNVYNMIRGEGRWQAIDQNTWGMILGKSGRLPGKLDPEIIALAKEKGMEFSDADPQQFYPDALDEFRKEMDQNGWEYGPDDEELFELAMHDRQYRDYKSGVAKERFNADLDKAKADRMAKQGYSDEDIKKAKRAGCDPIVAPCSGRLYWEIDTEEQSIAPAIGAEYRTGQPFCYIENQFGYIEKVYCTFTGRITEVVAQGTVVKKGDEIAYLRTAEKEIMWEGANEHIVRVETMPEPRKRITKSAQKN | not soluble |
| MGSDKIHHHHHHMDWEDAPLPYKLYRNVPIIPLSLEIPLSLPNSSTTPTLNEIGHYLWCSFGLTQLCQLNSEKILFRRSIPSGGALYPNELYIYLKIDDYPDGIYHYDAAHHRLILIREGNFDSYLTEALGNRCNLQSCFGAAFVSTMFWKNFFKYNNFSYRLQGLDSGVLIGQLLECAKQFGYTNGVYFQFLDRAINHLLGLSEGEESVYAVLPFSTEPQTNWFHNDYREIKTVTSHELLQQIPPLAHEHFVRSKHVNEYPMITKINEASMIESTAQFQTLAHEEHFQHHAHAVQLPKVERLSYDFLQLCRKRYSPDADFILTKWDAAELATLLQEASLSFPYYNDLDGQYVNENARVSLYGCFYNVKDIENGAYSYNSKTHSIQPLRYGDLRYPLQSSMTMDNVNLFQVPLCLHVVGKKDYYTNALGYRGYRIHQMEAGILVHKLVFAATAMGMAGHPLLSFDTNSCDQLYGIEAGNETSLIQIPVGAYRARNWLKGALRN | not soluble |
| MGSDKIHHHHHHMSSTPSNQNIIPIIKKESIVSLFEKGIRQDGRKLTDYRPLSITLDYAKKADGSALVKLGTTMVLAGTKLEIDKPYEDTPNQGNLIVNVELLPLAYETFEPGPPDENAIELARVVDRSLRDSKALDLTKLVIEPGKSVWTVWLDVYVLDYGGNVLDACTLASVAALYNTKVYKVEQHSNGISVNKNEVVGKLPLNYPVVTISVAKVDKYLVVDPDLDEESIMDAKISFSYTPDLKIVGIQKSGKGSMSLQDIDQAENTARSTAVKLLEELKKHLGI | not soluble |
| KILSVGSFGCNFVCDFCQNYDISQRKARSTFAPKEELIRIAMTTEDNIGLAFTYNEPSIWYEYMYDCAKLLKETDEKRSVVFVTNGFLSEEPLKKLLPYVDAMNIDLKSFKESYYKSLCGGRLNPVLETIKMAAKVCHVEVTTLLVSGENDNLDEIEEIAKFLASVNSEIPLHLSRYFPRYKLENPPTDVEFMQEAKKTAEKYLKRVMLGNV | not soluble |
| MISRTQRLLSLSTAMLLATTAAAVAEPSEELIAAAKKEGTLTTIALPHNWCGYGDVIAGFKAKYGIEVNELNPDAGSGDEIEAIKANKGNTGPQAPDVIDVGLSFGPSAKAEGLIQPYKVSTWDTIPDTAKDPEGYWYGDYYGVLSFVVNTDIVKDVPKDWADLKKSDYANSVALAGDPRASNQAVQAVYAAGLAAGETDAAKAGEAGLAFFAEVNKAGNFVPVIGKSASLAQGSTPIIIAWDYNGLSWRDSLNGNPPVEVVVPASGVVAGVYVQAISAFAPHPNAAKLWMEYLYSDEGQLGWLKGYCHPIRFNDLVKNGKVPKEMLDKLPPAESYEKAVFPTLDEQAKGKEAITTKWDSVVGASVQ | not soluble |
| MDQQEPSNNVDTSSILSDDGMETQEQSSFVTATIDLTVDDYDETEIQEILDNGKAEEGTDEDSDLVEGILNANSDVQALLDAPSEQVAQALNSFFGNESEQEAVAAQRRVDAEKTAKDEAELKQQEEAEDLIIEDSIVKTDEEKQAVRRLKINEFLSWFTRLLPEQFKNFEFTNPNYLTESISDSPVVNVDKCKEIVKSFKESESLEGLSQKYELIDEDVLVAAICIGVLDTNNEEDVDFNVLCDDRIDDWSIEKCVTFLDYPNTGLNSKNGPLRFMQFTVTSPASAILMLTLIRLREEGHPCRLDFDSNPTDDLLLNFDQVEFSNNIIDTAVKYWDDQKENGAQDKIGRRVLIKLTTVLKNAVGSRNEIIQLVNEKIPDFDGTEAAVNESFTSDQRTEIINSRAIMETLKAEMKLAIAEAQKVYDTKTDFEKFFVLTVGDFCLARANPSDDAELTYAIVQDRVDAMTYKVKFIDTSQIRECNIRDLAMTTQGMYDPSLNTFGDVGLRVACRQVISSSQFGKKTIWLTGTAAGRRRAHRSDFLIFFDNGTDAYVSAPTMPGEPGYEVASEKKSVFSLKEMIAKMNAAQIAIMVGQPVGKEGNLDYFLTFHWIRQSHRSAYIRDFMKEFPEWPLLKMPVGMRICLYNSLVDRRKKMVTVIGTDRAFAIVRHEAPNPLAPGNRCTDFPCNDRNHQHIDEKIYRGSHRLEGAAHKKHMISTNNNLSQRRKDQLQSQFEPTDMIRSMPERNHQQVVKKKTTGTNQNVASTNDAKSKREIEIRKKNQFLFNKIIVPIPVLTPLENLKAHAQCGPDCLQKMDADPYEARFHRNSPIHTPLLCGWRRIMYTMSTGKKRGAVKKNIIYFSPCGAALHQISDVSEYIHVTRSLLTIDCFSFDARIDTATYITVDDKYLKVADFSLGTEGIPIPLVNSVDNDEPPSLEYSKRRFQYNDQVDISSVSRDFCSGCSCDGDCSDASKCECQQLSIEAMKRLPHNLQFDGHDELYESSEKQNKFLKLFFFRVPHYQNRLLSSKVISGLYECNDQCSCHRKSCYNRVVQNNIKYPMHVSLFNDDTYQLLFFLQIFKTAQSGWGVRALTDIPQSTFICTYVGAILTDDLADELRNADQYFADLDLKDTVELEKGREDHETDFGYGGDESDYDDEEGSDGDSGDDVMNKMVKRQDSSESGEETKRLTRQKRKQSKKSGKGGSVEKDDTTPRDSMEKDNIESKDEPVFNWDKYFEPFPLYVIDAKQRGNLGRFLNHSCDPNVHVQHVMYDTHDLRLPWVAFFTRKYVKAGDELTWDYQYTQDQTATTQLTCHCGAENCTGRLLKS | not soluble |
| GPGSMFVSDNDDYLPEPQAPGDHHMHEERLRRLEENFALLLNQRSVGNASGPKESTPKARVTAVAADVQAADERSLKLTYELRELVPHLSPGFDCCSADALLLLSAIRNGSHGRGCESWEDRLAVVKAEKRSLHHQLEKKAQECEELKNAVAEMKQRLKAERQEALSSVNVLSQRREQVRKQLLLEESRSQKLQVRNGQLESELERLKDMLHSCMRR | not soluble |
